# In a protein production outcome set (Wang et al. 2014):
# Experiment: label from the status in PepcDB records
row,Sequence,protein production
1,MVAVRSAHLNTEGEFVPDAWIASLGIASQQSCERLAETWRYCEQQTQNQPDASLLLWRGIEMVEILSTLSMDNDSMRAALLFPLADANVVDEATLEAAFGKNIVDLVHGVRDMDAIRQLKATQNDSDASEQVDNIRRMLLAMVEDFRCVVIKLAERIAHLREVKDAPEEERVLAAKECTNIYAPLANRLGIGQLKWELEDFCFRYLHPDEYKKIAKLLHERRIDRAQYIDDFVKTLRDAMKEEGVQAEIYGRPKHIYSIWRKMQKKALSFDELFDVRAVRIVVERLQDCYGALGIVHTHYRHMPDEFDDYVANPKPNGYQSIHTVVLGPSGKTLEIQIRTRQMHEDAELGVAAHWKYKEGTAVGGRSGYEGRIAWLRKLLAWQEEVSDSNDVLDEVRSQVFDDRVYVFTPKGDVVDLPAGSTPLDFAYHIHSDIGHRCIGAKIGGRIVPFTYQLHMGDQIEIITQKQPNPSRDWLNPNLGYITTSRGRSKIQNWFRKQDRDKNILAGRQILDDELAHLGVSLKAAEKLLLPRYNVNSLDELLAAIGGGDVRLNQMVNFLQSQLKQPSAEELDREALRQLTQKTHQPPARSNNKDNGRVVVEGVGNLMHHIARCCQPIPGDEITGFITRGRGISIHRADCEQLDELRASSPERIVDAVWGESYSSGYSLVVRVIANDRSGLLRDITTILANEKVNVLGVASRSDTKQQLATIDMDIEIYNLQVLGRVLAKLNQLPDVIDARRQQGA,failed
2,MVDELFCPQCGMLKRRCKCRKRSIRQRNLELLKKVGYKEFLLPLFDTDDEIVLYKVLRPFREKPTEELDFLPSELASCLRKRGIGRLYPFQKEAMIRLMEGRDVVITAPTGFGKTEAFAVPMLWRALHGGKAMVFYPTKALARDQEEKIKFYTSSLGLRAVRFDGDSGREERRAVLSGKCDIILTNPDMVDYHLRNTPAFRRICRELSFIAVDELHTYTGVLGSNMHYLVKRLSRFAEFQIACASATLSNAAEFAEELFDRDFVLVSGEHRKGTLHLIFRYTPSLYSAVREIVTALRNRKIIVFGNSYKSVETINLILRRHGLKSAIHKSGLPKEVREEVEAKFKRGEINIVVSTPTLELGVDIGDVDVVVSELVPYGQMIQRVGRAGRKGQESVGVVILREDDSISTYYRTKPEDYFKEEANGYVERHNEEVMKFQLISMCIEKPVRLEELDRQSAEIMQKLQAQGIVVEREGAFHPTAKAIELSRAFSFRGIGDAVKIYHDGKYIGERALPIAVKELFPGSILVHNGVRYRTVELDLKRLRAEVVELDYGNEITDPLYMTIPRIIEVEDEIEEPVNAVYCSIEINYLVHGYIERDVFDRERKAFHYLDEPVSYTFKTKGFLFSAPFPDPADYEDYYAGSFHALEHVIIETTDAITGGGSREMGGISVPEGDIFVYDASVGGSGLSKLLFKRLRRAFEISKTILESCDCGRVDGCPKCTYSYQCGNNNQPLNRIGALNIAEKVIKGVKRKTDWRKYTDVIEIRYFPLEHHHHHH,failed
3,MVDQSAVGRRFTPVTAHVEAGRLRYFLDTLGETNPVYRDAAAAKVEGFAAPPVPPTYLFCLEMLDNERPFEFLTALEIDLGRVLHGEQSFTYHAPVMVGDTLTFSPQVTSVTDKKGGAMTLIGVATAVTNQHGVHVADTTRTIVVRNGLEHHHHHH,not failed
4,MVDVLWDEIQNLELGQDYPTLFIPNEAYVMVEDRNRLSLIARPLLPRVQNFNAVINALPRAWGLTAHVHGRILDATYVQLLFQTEIYLLSVQRREVWLFNNWFVASQRWEAAPSLNFVTTIDLWVQMRGIPILYVFEKTELEIAQELGEIISLDFHDATSTQIAYIRVRVRFGITDRLRFFQRITFESGETALIRFQYERLRRIYSCFRFTHNLNYYPYRQRFQSIDRERAVFRDSVLRSSFNSQSQMTDSSLQVPLHPPPRVPSSGDAITSGIMRVFEVGESSRGVQDGESHNNMNLGESSKRKNLVILQRDKESRQHKQQETEQRMGGILKPPKKR,not failed
5,MVEFLNKKKKSAQRPINLNGSFIFILILTFEFERRVKVDTADIFQRTMMLIGEDGLKKLSNVNIAVCGLGGVGSFAFEALVRCGIQNFVILDKDRVSVSNLNRQLIATVSNIGKSKVDIAYERALDINPFVNVVKVQKEINPENVEELLGNTKIDYIVDAIDDVSAKIALIKFAISRGIKIISSMGMGNRLNPSLLRISDIYSTKNCPLAKKIRSILRKEGIKKLKVVYSEEKPLKPDYKFLKEKTQKAHVPGSISFVPPVAGFLMAYEVVKDLLGW,failed
6,MVEIEYRKTRIKLGDTDLVYEPAEDSFLLADAALKDAKPGMRILEIGTGSGFVSSVLLTNLKEIYLVATEINPHAARCAKMNGVKVIRTDLFKGIKSKNPENLFDLILFNPPYLPTSEEEKVPGWLNYAFDGGISGRDTLDRFLDEVRDYLKLGGEILVLISSITGLDAVKAKMEKLGFEVEVVARKKVSFEELMVVKGKLL,failed
7,MVEIIIPVGPNDKLEWVKRSVNSALLQSVDKVIIYDNSERADIYNFFQELKDKLVYIKDKRMTKVNMARLRNKMLSLASDKYVIMLDSDVVIPKNYSNNIINKLERGVAYTWIHYAYSEEEIEKPLSISENNPNLGCAGLNLEVIKRIGYFDERYERDEDVWLYAKLKKTGYKVEPAEGRCLHLNKVHARLNLSSSVAEARRNLWRSKYDIMLMFDGLTDFTFLTGYSYYGSYYILAILSVIFHPLTFLYLPLIGYGVYYYKGPKKYLLNLIPGLSLAISFPYGLGYNLIQKLK,failed
8,MVELEKEKIVWIAIILLIIFLVWETLKDLIAPIVFGMAASYIAYPFHIKLSKKVGKRNSVLILSGILSIFSLIFFVGVTLWITDTLKNLYNYLDAFFSWLSTLNVPGFLSSLFDALATSFPEKLRSILLQYTLSLPKLALQLIVFLAVFYATLLNADFLAKEIYELLPLTNRELGEKMIEKVKDTVDAILKTWLFFSVVKGIFLALGFYLFKISNVAGSIAAGVLCIVLELLPVVGGWIMWLAGAIILLRRSMLLAIIFAIYGIITISPIPDYFLKPKFAKERAKVSSVVALVGIFGGWIAFGAVGIILGPIAIGLLLALIDAWREIGTKQPSKAHRSQDA,failed
9,MVEQRNRGRPAVPDAVVRESIVGAAQRLLSSGGAAAMTMEGVASEAGIAKKTLYRFASGRADLIGLLVESWIAPIFPGFEADPQDAAAALERIVYDIAQAVLSREAVSLFRMLASDADLRNRFLPAYNANGIERSRRELARWLDQQASAGRLPLPIPAERVADLLLSAVIAEPLRQITLGLREPLPAWDIAPRVADAVRLIAPGRER,not failed
10,MVFFSVVVPTYNRRPILEKCLRALEQQQISAETAIAGYEVVVVDDGSTDGTVDWLKAQASEFPHVRLFEQDHQGPARARNLGVQQAQGDTIIFIDSDLVVTPPFLQAHATGLEKGRQRLGSDRCFTYGAVINTCNFDNPTAEPFKVTDFSNAYFATGNVAIARHWLETAGLFDTAFQLYGWEDLELGVRLKNLGLKLIRCPEAVGYHWHPPFSLEQIPKLIDQESQRGRMGVLFYQKHPTWEVRLMIQMTWLHRLLWGTLSLGGFLNERTLRPLLAWLLKRDRPQLALEIARIFLNWNNVRSVYAAYRESQGLASSLEHHHHHH,not failed
11,MVFVWFIVAAIVTILTAIKLSNYADTIGEKSTLGGMLVGTIFLAGATSLPEITTTVSAIVLNNPDLAVGNVLGSNMFNLLILATLDLYFRRAQLFRGADTSHFFTASIGLLLAMVTLIAITLRLDVTLLGIGIDMLVLIVVYAFGMKLLSAVRNDPVPESQTIDQEDNRPVKKDVSLRHAMIGFAISAIVIMGAGTLLTVTGDEIAVVTGLGSSFVGSFLIAATTSLPEGVSVFVALRLKNINLALGSVLGSNLFNFLILGVSDILYRPGSIIAAISPVHQLTAAAVGILCLMTLYALLRPAEQSKRMYLMPSLVLIVFYFFSSYLIFVQ,failed
12,MVGADLLCGSAWVPALWLNLCNLGVVVTLWQLLSRLPRMHRRMRSPHGVLSVFAACAAAAMVAASMAAVMAAPWFEQSLRATWLAWFSEQFSTGVLVLPVLLTAPSVRALVRGGAQPIRLAPLLVLLASLAFSIAFGGPGAIAFPIAALLWCAWTYSPFLVSLLTLTAGSTLIVAVAQNLMHFSVPQSEPGVTTLMSARLGIAMLVLGPLVVACVSQANRSLMARLAHQATVDHLTGVLTRSAFTRRANALLESRQQHAQALPLTLMMLDIDHFKSINDAHGHAVGDQVLRQFASTLQDQLHNDELIARLGGEEFVVILPGLAPERANFTAERLRRAIQDLHVTQADQRLQITVSIGVAGCDADMPAPSLDELLASADQALYRAKARGRNRVEQAEAQRLVI,failed
13,MVGGGSKHVGEGSKPRATKDDAYAYLRAVRAKFHNDSKKYDDFVAVMTNFKARRIDRDGCIKEVEQLLKGHRDLISGFNAFLPKCLEIKNYYFGAGEDLEVVYTAKRKLLARSVTKRSSSSSSSSSVYFLFRSCEII,failed
14,MVGGGTVKKDLKKAIQYYVKACELNEMFGCLSLVSNSQINKQKLFQYLSKACELNSGNGCRFLGDFYENGKYVKKDLRKAAQYYSKACGLNDQDGCLILGYKQYAGKGVVKNEKQAVKTFEKACRLGSEDACGILNNY,failed
15,MVGNKVKSFMLPIISYAVPTFVLVYPSFFVSWLSESMHLAYWEVFAIVALPFLGRIIGSFIYQVFKNSVISYCFPFLGFLVILQNFLGALIFVRFLVGVIFGLLTSYAVESAVKSGRNVLVGFTTAGWPIGWVISYVAYVLLKNWNVINISGILIMLLALFELNGKEFGERSKISVSFPRLTSILIYVSALTPAFILQVMPSFLEVIKLTWLILPSYLLSIPTYVLLPIISEKVGIRKVLVISSIIVILSCVITFLLLPMMVIVFTSIGLGILGITPKYLAIRGEDPKRMGLALNIGSVMGLILPVVYGLMPFSSEFLLSILMVLMILI,failed
16,MVHASVDIEVQFAIAVVKTLILVLGGIVTYLAYSAYQRTGDETLFQLSVGLALVGVGVLLGGFTFELLDVSLGVGVLIESLFVLAGLSVIAYSLKK,failed
17,MVKAYQRYDAATSFGVISSVDSNIAYDSTGKYVLAPALEKVGIWHVRQGVCSKTLTPSSSRGGPSLAVTSIASSASSLVAVGYADGSIRIWDTEKGTCEVNFNSHKGAVTALRYNKVGSMLASGSKDNDIILWDVVGESGLFRLRGHRDQVTDLVFLDGGKKLVSSSKDKFLRVWDLETQHCMQIVSGHHSEVWSVDTDPEERYVVTGSADQELRFYAVKEYSSNGSLVSDSNANEIKASEEHSTENKWEILKLFGEIQRQTKDRVARVRFNVSGKLLACQMAGKTIEIFRVLDEAEAKQKAKRRLRRKEKKSSKVGDENSTANGEASAKIELADAVSSPTVLDVFKLLQVIRAGRKISSFSFCPTAPKESLGTLALSLNNNSLEFYSLKSSENAKTVTIEHQGHRSDVRSVTLSEDNTLLMSTSHSEVKIWNPSTGSCLRTIDSGYGLCSLIVPQNKYGIVGTKSGVLEIIDIGSATKVEEVKAHGGTIWSITPIPNDSGFVTVSADHEVKFWEYQVKQKSGKATKKLTVSNVKSMKMNDDVLAVAISPDAKHIAVALLDSTVKVFYMDSLKFYLSLYGHKLPVMCIDISSDGELIVTGSQDKNLKIWGLDFGDCHKSIFAHGDSVMGVKFVRNTHYLFSIGKDRLVKYWDADKFEHLLTLEGHHAEIWCLAISNRGDFLVTGSHDRSMRRWDRSEEPFFLEEEKEKRLEELFESEIDNAADDRHGPMEEIPEEGVAALAGKKTIDVLSAADSIIDALEVAEDETKRHAAYEEEKTKGKVPEYLPNAVMFGLSPSEYVLRAISNVRTNDLEQTLLALPFSDSLKFLCYMKDWSLIPEKVELVSRIATIILQTHHNQLVTTPSARPILSVLRDILYSEIKACKDTIGFNLAAMDHVKQMMDARSDAPFKDAKAKLLEIRSQQAKRMASRGDTKMEKKRKKKQKKLEEGQHGHALF,failed
18,MVKCLSAHNKAPHVSVITPSYNSIRFIGETIVSVQNQSYENWEMIIVDDASTDESVTKIKEIIEGDSRIRLVSLKENIGAAKARNIAIQEARGRYIAFLDSDDIWLPHKLKTQLLFMEEMSVAFSYASYSLIDENGNGLNREVNVPKSVDYHCLAGNTIIGCLTVIIDREKIPHIEMPSVQPEDTALWLKLLHEGHEAKGIQQVLAKYRIVANSVSRNKIKAAFRYWKLLRDQKCLNAVQIFYYFSKYAYHAYRKNKINVVGKTQL,failed
